From article PMC9841331 (The EMBO Journal, 2023) come the findings set out here.

The data set “native gel or EMSA” deals with the molecule itself. Description: native gel or EMSA. Background: A gel shift assay detects complexes by their altered migration in electrophoresis.
Data set [1] has as its target retromer^mRuby (yeast Vps26/Vps29/Vps35 complex labelled with mRuby) (S. cerevisiae, UniProt P40335 1-379; P38759 1-282; P34110 1-944). Description: fluorescence microscopy of recruitment to supported membrane tubes.

Values joined by “and” are separate entries in the source; they are usually repeats but may differ in a detail not shown here. Equal values may be shown once.

B1: retromer^mClover (yeast Vps26/Vps29/Vps35 complex carrying mClover-tagged Vps29), wild-type Vps35 (complex, S. cerevisiae)
chain 1: MSIFFKPPIDIEILFDNEESRKHVDIATRSSNSSYKSMKESLPVYEDGESLGGIVTLRVRDSKKVDHLGIKVSVIGSIDMLKSHGSGNSSSKKVTSSTSSSSSNGSVDVRKNSVDQFLCQSYDLCPAGELQHSQSFPFLFRDLSKRYESYKGKNVDVAYYVKVTVMRKSTDISKIKRFWVYLYNSVTTAPNTLSANETKATTNDIAGGNYAADNASDNTQTKSTQGEAADVNQVLPISHSNNEPKPVRLDIGIENCLHIEFEYAKSQYSLKEVIVGRIYFLLTRLRIKHMELSLITRESSGLQTSNVMTDSTAIRYEIMDGSSVKGETIPIRLFLSGYDLTPNMSCNYFNVKNYLSLVIIDEDGRRYFKQSEITLYRTR
chain 2: MLLLALSDAHIPDRATDLPVKFKKLLSVPDKISQVALLGNSTKSYDFLKFVNQISNNITIVRGEFDNGHLPSTKKDKASDNSRPMEEIPMNSIIRQGALKIGCCSGYTVVPKNDPLSLLALARQLDVDILLWGGTHNVEAYTLEGKFFVNPGSCTGAFNTDWPIVFDVEDSDEAVTSEVDKPTKENQSEDDDAKGGSTGKEQPGSYTPKEGTAGERENENESNVKPENQFKEDEVDMSDSDINGSNSPSFCLLDIQGNTCTLYIYLYVNGEVKVDKVVYEKE
chain 3: MAYADSPENAIAVIKQRTALMNRCLSQHKLMESLQHTSIMLTELRNPNLSPKKYYELYVIIFDSLTNLSTYLIENHPQNHHLADLYELVQYTGNVVPRLYLMITVGTSYLTFNEAPKKEILKDMIEMCRGVQNPIRGLFLRYYLSQRTKELLPEDDPSFNSQFIMNNFIEMNKLWVRLQHQGPLRERETRTRERKELQILVGSQLVRLSQIIDDNFQMYKQDILPTILEQVIQCRDLVSQEYLLDVICQVFADEFHLKTLDTLLQTTLHLNPDVSINKIVLTLVDRLNDYVTRQLEDDPNATSTNAYLDMDVFGTFWDYLTVLNHERPDLSLQQFIPLVESVIVLSLKWYPNNFDNLNKLFELVLQKTKDYGQKNISLESEHLFLVLLSFQNSKLQLTSSTTAPPNSPVTSKKHFIFQLISQCQAYKNILALQSISLQKKVVNEIIDILMDREVEEMADNDSESKLHPPGHSAYLVIEDKLQVQRLLSICEPLIISRSGPPANVASSDTNVDEVFFNRHDEEESWILDPIQEKLAHLIHWIMNTTSRKQTMKNKIQFSLEAQLEILLLIKSSFIKGGINVKYTFPAIITNFWKLMRKCRMIQEYLLKKRPDNKTLLSHYSNLLKQMFKFVSRCINDIFNSCNNSCTDLILKLNLQCAILADQLQLNEISYDFFSQAFTIFEESLSDSKTQLQALIYIAQSLQKTRSLYKEAYYDSLIVRCTLHGSKLLKKQDQCRAVYLCSHLWWATEISNIGEEEGITDNFYRDGKRVLECLQRSLRVADSIMDNEQSCELMVEILNRCLYYFIHGDESETHISIKYINGLIELIKTNLKSLKLEDNSASMITNSISDLHITGENNVKASSNADDGSVITDKESNVAIGSDGTYIQLNTLNGSSTLIRGVVATASGSKLLHQLKYIPIHHFRRTCEYIESQREVDDRFKVIYV
With B1, the stoichiometry N – broadly, a count of units in the complex or per binding partner – in the data set “native gel or EMSA” is 2 and 4.

B2: retromer^PISA-mClover (Vps26/Vps29-mClover/Vps35^PISA) (complex, S. cerevisiae)
chain 1: MSIFFKPPIDIEILFDNEESRKHVDIATRSSNSSYKSMKESLPVYEDGESLGGIVTLRVRDSKKVDHLGIKVSVIGSIDMLKSHGSGNSSSKKVTSSTSSSSSNGSVDVRKNSVDQFLCQSYDLCPAGELQHSQSFPFLFRDLSKRYESYKGKNVDVAYYVKVTVMRKSTDISKIKRFWVYLYNSVTTAPNTLSANETKATTNDIAGGNYAADNASDNTQTKSTQGEAADVNQVLPISHSNNEPKPVRLDIGIENCLHIEFEYAKSQYSLKEVIVGRIYFLLTRLRIKHMELSLITRESSGLQTSNVMTDSTAIRYEIMDGSSVKGETIPIRLFLSGYDLTPNMSCNYFNVKNYLSLVIIDEDGRRYFKQSEITLYRTR
chain 2: MLLLALSDAHIPDRATDLPVKFKKLLSVPDKISQVALLGNSTKSYDFLKFVNQISNNITIVRGEFDNGHLPSTKKDKASDNSRPMEEIPMNSIIRQGALKIGCCSGYTVVPKNDPLSLLALARQLDVDILLWGGTHNVEAYTLEGKFFVNPGSCTGAFNTDWPIVFDVEDSDEAVTSEVDKPTKENQSEDDDAKGGSTGKEQPGSYTPKEGTAGERENENESNVKPENQFKEDEVDMSDSDINGSNSPSFCLLDIQGNTCTLYIYLYVNGEVKVDKVVYEKE
chain 3: MAYADSPENAIAVIKQRTALMNRCLSQHKLMESLQHTSIMLTELRNPNLSPKKYYELYVIIFDSLTNLSTYLIENHPQNHHLADLYELVQYTGNVVPRLYLMITVGTSYLTFNEAPKKEILKDMIEMCRGVQNPIRGLFLRYYLSQRTKELLPEDDPSFNSQFIMNNFIEMNKLWVRLQHQGPLRERETRTRERKELQILVGSQLVRLSQIIDDNFQMYKQDILPTILEQVIQCRDLVSQEYLLDVICQVFADEFHLKTLDTLLQTTLHLNPDVSINKIVLTLVDRLNDYVTRQLEDDPNATSTNAYLDMDVFGTFWDYLTVLNHERPDLSLQQFIPLVESVIVLSLKWYPNNFDNLNKLFELVLQKTKDYGQKNISLESEHLFLVLLSFQNSKLQLTSSTTAPPNSPVTSKKHFIFQLISQCQAYKNILALQSISLQKKVVNEIIDILMDREVEEMADNDSESKLHPPGHSAYLVIEDKLQVQRLLSICEPLIISRSGPPANVASSDTNVDEVFFNRHDEEESWILDPIQEKLAHLIHWIMNTTSRKQTMKNKIQFSLEAQLEILLLIKSSFIKGGINVKYTFPAIITNFWKLMRKCRMIQEYLLKKRPDNKTLLSHYSNLLKQMFKFVSRCINDIFNSCNNSCTDLILKLNLQCAILADQLQLNEISYAFFSQAFTIFEESLSDSKTQLQALIYIAQSLQKTRSLYKEAYYDSLIVRCTAHGSALLKKQDQCRAVYLCSHLWWATEISNIGEEEGITDNFYRDGKRVLECLQASLRVADSIMDNEQSCELMVEILNRCLYYFIHGDESETHISIKYINGLIELIKTNLKSLKLEDNSASMITNSISDLHITGENNVKASSNADDGSVITDKESNVAIGSDGTYIQLNTLNGSSTLIRGVVATASGSKLLHQLKYIPIHHFRRTCEYIESQREVDDRFKVIYV
As to B2, in the data set “native gel or EMSA”, the binding result is “binds”.

B3: SNX-BAR complex (yeast sorting nexins Vps5/Vps17) (complex, S. cerevisiae)
chain 1: MDYEDNLEAPVWDELNHEGDKTQSLVSNSIESIGQISTNEERKDNELLETTASFADKIDLDSAPEWKDPGLSVAGNPQLEEHDNSKADDLINSLAPEQDPIADLKNSTTQFIATRESGGALFTGNANSPLVFDDTIYDANTSPNTSKSISGRRSGKPRILFDSARAQRNSKRNHSLKAKRTTASDDTIKTPFTDPLKKAEKENEFVEEPLDDRNERRENNEGKFTASVEKNILEQVDRPLYNLPQTGANISSPAEVEENSEKFGKTKIGSKVPPTEKAVAFKVEVKDPVKVGELTSIHVEYTVISESSLLELKYAQVSRRYRDFRWLYRQLQNNHWGKVIPPPPEKQSVGSFKENFIENRRFQMESMLKKICQDPVLQKDKDFLLFLTSDDFSSESKKRAFLTGSGAINDSNDLSEVRISEIQLLGAEDAAEVLKNGGIDAESHKGFMSISFSSLPKYNEADEFFIEKKQKIDELEDNLKKLSKSLEMVDTSRNTLAASTEEFSSMVETLASLNVSEPNSELLNNFADVHKSIKSSLERSSLQETLTMGVMLDDYIRSLASVKAIFNQRSKLGYFLVVIENDMNKKHSQLGKLGQNIHSEKFREMRKEFQTLERRYNLTKKQWQAVGDKIKDEFQGFSTDKIREFRNGMEISLEAAIESQKECIELWETFYQTNL
chain 2: MTSAVPYDPYDDLDNNPFAEPQEEDSEPAATTTDGSSSMSEERVGTEQTAASVQDNGTANNIQNGLGEEGNATRSKTSNEHNENQQPSQPSERVILPERSDEKKKYTLLAKVTGLERFGSATGKKENPTIIFDCSTNLPTFRKQQYKNVKKSYEEFHQLFKYLNVAIQESFVPTLPSAYTTFGINSEEDRMKVTRNFQLWFNRLSQDPLIIRNEEVAFFIESDFNTYTPINKSKSLASGLKRKTLKQLAPPYDEITELAEFRPLVKSIYVVSQSLQEKLLRVSRNRKMMVQEENAFGQDFVNLDEHNKLYRRYGKILTAVGDIDSIIATMDMATLYDGLEWIVRDAYAVKEALTNRHFIMRNLVQAQQNSKAKQEQARRFRSRRDINPMKIDEALRQLKAAAKNEQVLTLKLQRITSNMIIERKQWISWYEEWIRSSIKEFTLRKIEYERKKLTLLERVRSDIRKADENGGLSRLGRHAVSNNNSDTSQTLKGDSWTGESNRKSQIPINKIAHTEFDDELFTEDDGYNSQDSDTTSLNARHAASLLGMSTK
B3: the binding result in data set [1] is on record as “binds”.
